According to patent publication US20250066490A1, “ANTI-CD70 ANTIBODIES, CONJUGATES THEREOF AND METHODS OF USING THE SAME” (ProfoundBio US Co., priority 2021, published 2025):

How the values were obtained:
[1] = system: cynomolgus CD70 recombinant protein; experiment: Antibody binding ELISA, cynomolgus CD70; conditions: full IgG, FIG. 3
Experimental: The binding specificity of the CD70 antibodies was tested by ELISA according to a standard protocol. Briefly, 96-well micro-plates were coated with 2 μg/ml of human or cynomolgus CD70 recombinant protein in PBS at 100 μl per well and incubated overnight at 4° C. The plates were washed twice with TBS+0.5% Tween20. 200 μL of blocking buffer (2% BSA in PBS) was added to each well, and the plates were incubated at 37° C. for 2 hours. The plates were washed using the wash buffer mentioned above. Serially diluted antibodies were added to the ELISA plates using 100 μl per well, and the plates were incubated for 1 hour at room temperature. Then plates were washed 3 times. HRP conjugated anti-human Fc antibody solution (Sigma, I18885-2ML, diluted with blocking buffer) was added to the plates using 100 μl per well. The plates were incubated at room temperature for 1 hour and then washed 3 times. Then the TMB solution was added to plates using 100 μl per well and the plates were placed at RT for 5-15 mins. Then the stop solution (2M H2SO4) was added using 50 μl per well. The absorbance was measured at A450 and A630.

786-O cells = experiment: Internalization by FACS immune-fluorescence staining, 786-O; format: cell-based, human
Experimental: Briefly, 2×10^5 cells were harvested from a tissue culture flask by treatment with 0.25% Trypsin/EDTA and then incubated with 10 μg/ml of the lead antibodies or control antibodies in FACS buffer (1×PBS with 0.1% BSA) for 30 mins at 4° C. The cells were washed at 4° C. to remove unbound antibodies and kept on ice or shifted to 37° C. At the set time points (0 h, 4 h, 24 h), cells were incubated with PE-conjugated anti human Fc (Abcam, Ab98596) for 30 mins at 4° C. and then analyzed by flow cytometry. The internalization ratio was calculated by subtracting the 37° C. MFI from the 4° C. MFI, and then compared with 4° C. MFI.
(§1) Four cell lines ([…]), Caki-1, Raji, MCF-7) were utilized in the internalization assay. Target (CD70) copy numbers were determined via the QIFIKIT (DAKO, K0078). Briefly, cells were labeled with a primary mouse monoclonal antibody against CD70. Cells, Set-up beads, Calibration beads (from the kit) were then labeled in parallel with a fluorescein-conjugated anti-mouse secondary antibody. The fluorescence is correlated with the number of bound primary antibody molecules on the cells and on the beads. Samples were subsequently analyzed on the flow cytometer and copy number determined based on the calibration curve (Table 11). For internalization assay, 3×10^5 cells were incubated at 4° C. for 30 min with 10 µg/ml 2E7 in FACS buffer (1×PBS containing 0.1% BSA). Cells were washed at 4° C. to remove unbound material and kept on ice or shifted to 37° C. for different lengths of time. At progressive timepoints ([…], 0.5, 1, 2, 3, 4 hr) cells were stained with PE-conjugated anti-human Fc for 30 min at 4° C. and analyzed by flow cytometry. Internalization rate were calculated by subtracting the mean fluorescence intensity (MFI) of cell surface-bound antibody at 37° C. at each time point from the MFI of cell surface-bound antibody at 4° C. at time 0, then divided by the MFI of the cell surface-bound antibody at 4° C. at time 0.

[2] = system: CD70-negative cell line (MCF-7); experiment: Internalization time course, MCF-7; format: cell-based; conditions: MCF-7, up to 4 hr, FIG. 13
Experimental: as §1

CD70 ECD = molecular target: T1, CD70 ECD (Homo sapiens, UniProt P32970); experiment: Biacore affinity measurement on immobilized CD70 ECD; format: binding
T1 sequence (P32970 39-193 limits assumed): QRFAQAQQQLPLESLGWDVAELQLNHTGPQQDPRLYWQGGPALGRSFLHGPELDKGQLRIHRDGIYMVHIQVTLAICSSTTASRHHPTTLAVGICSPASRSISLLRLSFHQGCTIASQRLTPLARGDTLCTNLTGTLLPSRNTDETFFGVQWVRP
Experimental: The immobilization of antigen CD70 ECD was performed at 25° C. with HBS-EP as the running buffer. Sensor chip surface of flow cells 1, 4 were activated by freshly mixed 50 mmol/L N-Hydroxy succinimide (NHS) and 200 mmol/L 1-ethyl-3-(3-dimethylaminopropyl) carbodiimide hydrochloride (EDC) for 420s (10 μL/min). Afterwards, CD70 antigen diluted in 10 mmol/L NaAC (pH 4.5) was injected into flow cell 4 to achieve conjugation of the appropriate Response Unit, while flow cell 1 was set as a blank. After the amine coupling reaction, the remaining active coupling sites on chip surface were blocked by 420s injection of 1 mol/L ethanolamine hydrochloride.
The assay was performed at 25° C. and the running buffer was HBS-EP. Diluted antibodies were injected over the surface of flow cells 1 and 4 during the association phase, followed by injecting running buffer as the dissociation phase. All the data were processed using Biacore T200 Evaluation software version 3.1. Flow cell 1 and a blank injection of buffer in each cycle were used as a double reference for Response Units subtraction. Kinetic data of the interaction between the antibodies and CD70 antigen were obtained through affinity measurement.

[3] = system: CD70-negative cell line, MCF-7; experiment: 2E7 binding by flow cytometry, MCF-7; conditions: FIG. 12
Experimental: Binding activity of 2E7 or the isotype control with a target cell line (Raji) or a cell line (MCF-7) that has negligible level of CD70 expression were evaluated by flow cytometry (Beckman, Cytoflex). 3×10^5 cells per well were seeded on a 96-well V-bottomed plate and incubated with 100 μl of 2E7 in serial dilutions. After 30 min incubation at 4° C., cells were washed twice with PBS, stained with 100 μl of 1:200 diluted PE-conjugated anti-human Fc in FACS buffer (1×PBS containing 1% BSA), then incubated at 4° C. for 30 min. Cells were finally washed two times with PBS and analyzed by flow cytometric analysis.

2E7 rat PK = format: in vivo, Sprague Dawley rats; conditions: intravenous infusion, 3 mg/kg, FIG. 14
Experimental: 2E7 was administered via intravenous infusion at 3 mg/kg to male Sprague Dawley rats (n=3 per group). Orbital blood was sampled from each rat at various time points post dosing. Circulating concentrations of 2E7 were analyzed by an ELISA assay (ProfoundBio) and calculated using the GraphPad Prism 6 software.

affinity to CD70 antigen, fold greater than the reference antibody h1F6 (CD70 ECD): 2-3 fold
Rmax (RU) (CD70 ECD; 25° C., CD70 immobilized): 32.94 RU
ka (CD70 ECD; 25° C., CD70 immobilized): 75400 M⁻¹ s⁻¹
kd (CD70 ECD; 25° C., CD70 immobilized): 0.00106 s⁻¹
B1: 2E7: anti-CD70 antibody clone, VH SEQ 7 and VL SEQ 8; tested as scFv and full human IgG1/kappa (antibody, V domains shown)
VH: QVQLQESGPGLVKPSETLSLTCTVSGGSVSSDYYYWSWIRQPPGKGLEWLGYIYYSGSTNYNPSLKSRVTISVDTSKNQFSLKLRSVTTADTAVYYCARGDGDFLGVCFDYWGQGTLVTVSS
VL: EIVLTQSPATLSLSPGERATLSCRASQSVSSYLAWYQQKPGQAPRLLIFDASNRATGIPARFSGSGSGTDFTLTISSLEPEDFAVYYCQQRSNWPLTFGGGTKVEIK
modifications: Synthetic 2E7 VH amino acid sequence; Synthetic 2E7 VL amino acid sequence
notes: tested as scFv and full human IgG1/kappa
cross binding activity to the cyno-antigen [1]: better cross binding activity to the cyno-antigen than antibody 69A7
absolute amount of antibody internalized into cell vs parent antibody 69A7 (786-O cells; based on the cell binding affinity): higher absolute amount of antibody internalized into cell than the parent antibody 69A7
internalization, time course (786-O cells; up to 4 hr, FIG. 13): rapid internalization
internalization, time course [2]: no internalization
binding to MCF-7 [3]: no binding
plasma PK (2E7 rat PK): stable plasma PK in rat that is characteristic of IgG1 antibodies
